Km, kcat and kcat/Km data for one substance are collected here from paper PMC7242879, “Exploring the Molecular Basis for Substrate Affinity and Structural Stability in Bacterial GH39 β-Xylosidases” (Frontiers in Bioengineering and Biotechnology, 2020).

For orientation: Km means the concentration of substrate that gives half-maximal velocity. As a reminder, the kcat is the number of substrate molecules converted per active site and unit of time at saturation. As usually defined, the kcat/Km is the second-order rate constant that governs catalysis at low substrate concentration.

The series deals with O=[N+]([O-])c1ccc(O[C@@H]2OC[C@@H](O)[C@H](O)[C@H]2O)cc1. As to the kind of experiment: purified protein. The settings on record: McIlvaine buffer 50 mM pH 5.5, 40 °C, 0.1–25 mM substrate, 13.6 μM enzyme, 15 min.

Take “XacXynB (Xanthomonas citri subsp. citri 306)”: the Km was 1930 ± 250 µM, the catalytic constant (kcat) came to 4.43 ± 0.142 s⁻¹ and the kcat/Km stood at 2300 M⁻¹ s⁻¹.
